{"source": "patent US20260167959A1", "about": "“APTAZYME-BASED REGULATABLE GENE EXPRESSION SYSTEMS” (REJUVENATE BIO INC, priority 2022, published 2026)", "molecules": {"B1": {"name": "RA238 (nucleic acid)", "DNA": "GCGCGTCCTGGATTAGAATACCAGCATCGTCTTGATGCCCTTGGAAGTCTCGCGGAAACGCGTACATCCAGCTGACGAGTCCCAAATAGGACGAAACGCGC", "modifications": "expressed or natural sequence"}, "B2": {"name": "RA217 (nucleic acid)", "DNA": "GCGCGTCCTGGATTCCGAGAATACCAGCATCGTCTTGATGCCCTTGGAAGTCTCGGCGGAAACGCGTACATCCAGCTGACGAGTCCCAAATAGGACGAAACGCGC", "modifications": "expressed or natural sequence"}, "B3": {"name": "RA235 (nucleic acid)", "DNA": "GCGCGTCCTGGATTCGCGGAAACGCGTACATCCAGCTGACGAGTCCCAAATAGGAGAGAATACCAGCATCGTCTTGATGCCCTTGGAAGTCTCCGAAACGCGC", "modifications": "expressed or natural sequence"}, "B4": {"name": "RA223 (nucleic acid)", "DNA": "GCGCGTCCTGCGAGAATACCAGCATCGTCTTGATGCCCTTGGAAGTCTCGGATTCGCGGAAACGCGTACATCCAGCTGACGAGTCCCAAATAGGACGAAACGCGC", "modifications": "expressed or natural sequence"}, "B5": {"name": "RA224 (nucleic acid)", "DNA": "GCGCGTCCTGGATTCGCGGAAACGCGTACATCCAGCTGACGAGTCCCAAATAGAGAATACCAGCATCGTCTTGATGCCCTTGGAAGTCTGACGAAACGCGC", "modifications": "expressed or natural sequence"}, "B6": {"name": "RA234 (nucleic acid)", "DNA": "GCGCGTCCTGGATTCGCGGAAACGCGTACATCCAGCTGACGAGTCCCAAATAGGACGAAACCGGAATACCAGCATCGTCTTGATGCCCTTGGAAGTCCGGCGC", "modifications": "expressed or natural sequence"}, "B7": {"name": "RA225 (nucleic acid)", "DNA": "GCGCGTCCTGGATTCGCGGAAACGCGTACATCCAGCTGACGAGTCCCAAATAAGAATACCAGCATCGTCTTGATGCCCTTGGAAGTCTGGACGAAACGCGC", "modifications": "expressed or natural sequence"}, "B8": {"name": "RA021 (nucleic acid)", "DNA": "GCGCGTCCTGGATTCGCGGAAACGCGTACATCCAGCTGACGAGTCCCAAATAGAGTGATACCAGCATCGTCTTGATGCCCTTGGCAGCACTGACGAAACGCGC", "modifications": "expressed or natural sequence"}, "B9": {"name": "RA239 (nucleic acid)", "DNA": "GCGCGTCCTGGATTCGCGGAAACGCGTACATCCAGCTGACCCGGAATACCAGCATCGTCTTGATGCCCTTGGAAGTCCGGGAGTCCCAAATAGGACGAAACGCGC", "modifications": "expressed or natural sequence"}, "B10": {"name": "RA240 (nucleic acid)", "DNA": "GCGCGTCCTGGATTCGCGGAAACGCGTACATCCAGCTGACGAGTCCCCGAGAATACCAGCATCGTCTTGATGCCCTTGGAAGTCTCGAAATAGGACGAAACGCGC", "modifications": "expressed or natural sequence"}, "B11": {"name": "RA231 (nucleic acid)", "DNA": "GCGAGAATACCAGCATCGTCTTGATGCCCTTGGAAGTCTCGCGTCCTGGATTCGCGGAAACGCGTACATCCAGCTGACGAGTCCCAAATAGGACGAAACGCGC", "modifications": "expressed or natural sequence"}, "B12": {"name": "RA233 (nucleic acid)", "DNA": "B11 DNA with G3A, A4G, G5T, A6G, A34C, T37C, C38A, T39C, C40T", "modifications": "expressed or natural sequence"}, "B13": {"name": "RA219 (nucleic acid)", "DNA": "GCGCGTCCTGGATTCGCGGAAACGCGTACATCCAGCGGAATACCAGCATCGTCTTGATGCCCTTGGAAGTCCTGACGAGTCCCAAATAGGACGAAACGCGC", "modifications": "expressed or natural sequence"}, "B14": {"name": "RA236 (nucleic acid)", "DNA": "GCGCGTCCTGGATTCGCGGAAACGCGTACACCGGAATACCAGCATCGTCTTGATGCCCTTGGAAGTCCGGTCCAGCTGACGAGTCCCAAATAGGACGAAACGCGC", "modifications": "expressed or natural sequence"}, "B15": {"name": "RA237 (nucleic acid)", "DNA": "GCGCGTCCTGGATTCGCGGAAACGCGTACATCCAGCTGACGGAGAATACCAGCATCGTCTTGATGCCCTTGGAAGTCTCAGTCCCAAATAGGACGAAACGCGC", "modifications": "expressed or natural sequence"}, "B16": {"name": "RA228 (nucleic acid)", "DNA": "GCGCGTCCTGGATTCGCGGAAACGCGTACATCCAGCTGGGAATACCAGCATCGTCTTGATGCCCTTGGAAGTCCACGAGTCCCAAATAGGACGAAACGCGC", "modifications": "chemistry not given here"}, "B17": {"name": "RA022 (nucleic acid)", "DNA": "GCGCGTCCTGGATTCGCGGAAACGCGTACAAGTGATACCAGCATCGTCTTGATGCCCTTGGCAGCACTTCCAGCTGACGAGTCCCAAATAGGACGAAACGCGC", "modifications": "expressed or natural sequence"}, "B18": {"name": "RA227 (nucleic acid)", "DNA": "GCGCGTCCGAGAATACCAGCATCGTCTTGATGCCCTTGGAAGTCTCGCTGGATTCGCGGAAACGCGTACATCCAGCTGACGAGTCCCAAATAGGACGAAACGCGC", "modifications": "expressed or natural sequence"}, "B19": {"name": "RA241 (nucleic acid)", "DNA": "GCGCGTCCTCCGGAATACCAGCATCGTCTTGATGCCCTTGGAAGTCCGGGGATTCGCGGAAACGCGTACATCCAGCTGACGAGTCCCAAATAGGACGAAACGCGC", "modifications": "expressed or natural sequence"}, "B20": {"name": "RA218 (nucleic acid)", "DNA": "GCGCGTCCTGGATTCGCGGAAACGCGTACATCCAAGTGATACCAGCATCGTCTTGATGCCCTTGGCAGCACTGCTGACGAGTCCCAAATAGGACGAAACGCGC", "modifications": "expressed or natural sequence"}, "B21": {"name": "RA229 (nucleic acid)", "DNA": "GCGCCGGAATACCAGCATCGTCTTGATGCCCTTGGAAGTCCGGCGTCCTGGATTCGCGGAAACGCGTACATCCAGCTGACGAGTCCCAAATAGGACGAAACGCGC", "modifications": "expressed or natural sequence"}, "B22": {"name": "RA221 (nucleic acid)", "DNA": "GCGCGTCCTGGATTCGCGGAAACGCGTACATCCAGCTGACGGAATACCAGCATCGTCTTGATGCCCTTGGAAGTCCGCGAGTCCCAAATAGGACGAAACGCGC", "modifications": "expressed or natural sequence"}, "B23": {"name": "RA226 (nucleic acid)", "DNA": "B22 DNA with C40A, G42T, A43G, A71C, T74C, C75A, G77T", "modifications": "expressed or natural sequence"}, "B24": {"name": "RA222 (nucleic acid)", "DNA": "GCGCGTCCTGGATTCGCGGAAACGCGTACATCCAGCTGACAGAATACCAGCATCGTCTTGATGCCCTTGGAAGTCTGAGTCCCAAATAGGACGAAACGCGC", "modifications": "expressed or natural sequence"}, "B25": {"name": "RA230 (nucleic acid)", "DNA": "GCGCGTCCTGAGAATACCAGCATCGTCTTGATGCCCTTGGAAGTCTCGGATTCGCGGAAACGCGTACATCCAGCTGACGAGTCCCAAATAGGACGAAACGCGC", "modifications": "expressed or natural sequence"}, "B26": {"name": "RA023 (nucleic acid)", "DNA": "GCGCGTCCTGGATTCGCGGAAACGCGTGAGAATACCAGCATCGTCTTGATGCCCTTGGAAGTCTCACATCCAGCTGACGAGTCCCAAATAGGACGAAACGCGC", "modifications": "expressed or natural sequence"}, "B27": {"name": "RA220 (nucleic acid)", "DNA": "GCCGAGAATACCAGCATCGTCTTGATGCCCTTGGAAGTCTCGGCGTCCTGGATTCGCGGAAACGCGTACATCCAGCTGACGAGTCCCAAATAGGACGAAACGCGC", "modifications": "expressed or natural sequence"}, "B28": {"name": "RA232 (nucleic acid)", "DNA": "B27 DNA with G4C, A5G, T40C, C41G", "modifications": "expressed or natural sequence"}}, "note": "Where a chain is given by its changes, count along the chain named."}
{"tested_on": "Renilla luciferase RNA", "experiment": "Barcoded aptazyme variant library screen: un-cleaved Renilla luciferase RNA by barcode read counts, HEK293-T cells", "format": "cell-based", "settings": "un-cleaved Renilla luciferase RNA, HEK293-T cells cultured with 1 mM theophylline (ON) over without theophylline (OFF); barcode read counts, triplicate", "outline": "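Aptazyme variants (seven theophylline aptamers inserted after each T3H48 ribozyme nucleotide, 9-nt barcoded) cloned into the 3′ UTR of Renilla luciferase in psiCHECK-2; cells cultured ± theophylline, in triplicate. RNA and DNA barcodes amplified and sequenced; normalized read counts gave un-cleaved RNA fraction and ON/OFF fold-change.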", "units": {"Fold change in RNA expression between the ON state and the OFF state": "fold"}}
{"molecule": "B1", "Fold change in RNA expression between the ON state and the OFF state": 1.1}
{"molecule": "B2", "Fold change in RNA expression between the ON state and the OFF state": 1.2}
{"molecule": "B3", "Fold change in RNA expression between the ON state and the OFF state": 1.1}
{"molecule": "B4", "Fold change in RNA expression between the ON state and the OFF state": 1.2}
{"molecule": "B5", "Fold change in RNA expression between the ON state and the OFF state": 1.1}
{"molecule": "B6", "Fold change in RNA expression between the ON state and the OFF state": 1.1}
{"molecule": "B7", "Fold change in RNA expression between the ON state and the OFF state": 1.1}
{"molecule": "B8", "Fold change in RNA expression between the ON state and the OFF state": 2.7}
{"molecule": "B9", "Fold change in RNA expression between the ON state and the OFF state": 1.1}
{"molecule": "B10", "Fold change in RNA expression between the ON state and the OFF state": 1.1}
{"molecule": "B11", "Fold change in RNA expression between the ON state and the OFF state": 1.1}
{"molecule": "B12", "Fold change in RNA expression between the ON state and the OFF state": 1.1}
{"molecule": "B13", "Fold change in RNA expression between the ON state and the OFF state": 1.2}
{"molecule": "B14", "Fold change in RNA expression between the ON state and the OFF state": 1.1}
{"molecule": "B15", "Fold change in RNA expression between the ON state and the OFF state": 1.1}
{"molecule": "B16", "Fold change in RNA expression between the ON state and the OFF state": 1.1}
{"molecule": "B17", "Fold change in RNA expression between the ON state and the OFF state": 2.6}
{"molecule": "B18", "Fold change in RNA expression between the ON state and the OFF state": 1.1}
{"molecule": "B19", "Fold change in RNA expression between the ON state and the OFF state": 1.1}
{"molecule": "B20", "Fold change in RNA expression between the ON state and the OFF state": 1.2}
{"molecule": "B21", "Fold change in RNA expression between the ON state and the OFF state": 1.1}
{"molecule": "B22", "Fold change in RNA expression between the ON state and the OFF state": 1.2}
{"molecule": "B23", "Fold change in RNA expression between the ON state and the OFF state": 1.1}
{"molecule": "B24", "Fold change in RNA expression between the ON state and the OFF state": 1.2}
{"molecule": "B25", "Fold change in RNA expression between the ON state and the OFF state": 1.1}
{"molecule": "B26", "Fold change in RNA expression between the ON state and the OFF state": 2.6}
{"molecule": "B27", "Fold change in RNA expression between the ON state and the OFF state": 1.2}
{"molecule": "B28", "Fold change in RNA expression between the ON state and the OFF state": 1.1}
